From the supplement of paper PMC9170038 come the findings set out here.

This data set has as its system MS2 coat protein. Nature of the data set: apparent KD of MS2 coat protein; designed switch direction (-1 OFF switch, 1 ON switch): 1; higher = weaker reporter binding. The essentials:
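SNAP-549-labelled MS2 coat protein was titrated, doubling from 0.7 or 1.5 nM to 3 µM, over designed RNA switches transcribed on Illumina chips by stalled E. coli RNA polymerase. Runs were done without input, with 200 uM small-molecule ligand, or with an oligonucleotide input. Apparent KD is the per-design median over clusters of curve-fitted normalised fluorescence.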

[1] abbreviates: Eterna round: R95, input ligand: FMN 200 uM.
[2] abbreviates: Eterna round: R95, input ligand: microRNA oligo, concentration not stated.
The mark [3] stands for this setting: Eterna round: R95, input ligand: none.
The mark [4] stands for this setting: input ligand: microRNA oligo, concentration not stated.

“AUAAGGCAAGCUUUUUUCUCGUAGUGUAAACAUGAGGAUCACCCAUGUGCCCACCCUGGAUCUUUGGAUCGCAGAAC [Sobiisarre] (puzzle: Sensor for hsa-mir-208a)”: the “apparent KD of MS2 coat protein” value reads like this: under setting [1], 20.3 nM; under setting [2], 15.2 nM; under setting [3], 22.7 nM.

Turning to “GGCCUGAGUGAAGGAUAUGCUACCGUUUCGGUAGCAGAAGGUCAUCACAUGAGGAUGACCCAUGUUUACGCGAACACGCGCGCC (Eterna round: R96, puzzle: Same State NG 1)”, the “apparent KD of MS2 coat protein” value reads like this: (input ligand: FMN 200 uM) 45.9 nM; under setting [4], 27.2 nM; (input ligand: none) 28.2 nM.

Consider “GGUCCAGCCUGAGCUGGACCGAAGCGUGUACAUGAGGAUCACCCAUGUCAUGUACAGGCUUUUUGCUCGUCUUAUUG [JL-shm-2.11 JL Mod] (puzzle: Sensor for hsa-mir-208a)”, for which the “apparent KD of MS2 coat protein” value is, setting by setting: under setting [1], 46.5 nM; under setting [2], 20.6 nM; under setting [3], 72.9 nM.

As for “UGUUGUAUUACAGGAUAUCUAGUAUUUUUAUUCAGAGAAGGGUAUUCACAUGAGGAUCACCCAUGUAUAUACGAGGAAGUUGUG [JMF's solution 56] (Eterna round: R96, puzzle: Same State NG 1)”, the “apparent KD of MS2 coat protein” value under setting [4] was determined as 34.1 nM.

Consider “CGUCCGGCCUGAGCUGGACGGAGGCAUGUACAUGAGGAUCACCCAUGUUCAUGUGCAGGCUUUUUGCUCGUCUUGUG [JL-shm-2.07 JL mod] (puzzle: Sensor for hsa-mir-208a)”, for which the “apparent KD of MS2 coat protein” value reads like this: under setting [1], 53 nM; under setting [2], 10.9 nM; under setting [3], 54.2 nM.

“ACAUGAGAGAAAGGAUAUCUUGUACCUACAUGUGACAUGAGGAUCACCCAUGUGGUAAGUAUGACGGAGAAGGUUCAGAUAUGU [Equivalance 72 - Jieux - Same State NG 2] (Eterna round: R96, puzzle: Same State NG 2)”: the “apparent KD of MS2 coat protein” value (input ligand: FMN 200 uM) worked out at 77.1 nM, the “apparent KD of MS2 coat protein” value under setting [4] is 125 nM and the “apparent KD of MS2 coat protein” value (input ligand: none) was 154 nM.

Regarding “GGAGCCGGCCUAGGAUAUUUCAUUUUAAAACAUGAGGAUCACCCAUGUAGGCCAGAAGGCCUUGGGAAGAAGGAGGUCGGCUCC [Loop Effect - U24,U25,U26] (Eterna round: R96, puzzle: Same State NG 2)”, the “apparent KD of MS2 coat protein” value stood at 17.4 nM (input ligand: FMN 200 uM), 33.2 nM under setting [4] and 69.3 nM (input ligand: none).

Consider “AUAAUACAUGAGGAUCACCCAUGUAAUUUAACUUGUAAGAUCAAGGAUAUCAGCUCGAUUAGAGCUGAGAAGGUGAUCACAUGU [SSNG3/20-A2] (Eterna round: R96, puzzle: Same State NG 3)”, for which, under setting [4], the “apparent KD of MS2 coat protein” value was found to be 69.1 nM.

As to “UUGGUUCUCGUAGGAUAUGUAGGAUAUUCCUACAUGAGGAUCACCCAUGUUCGCAUGGAAGAAGGACAGAAGGACGAUCACCAU [pwkr ssNG2 2FMN + 1F5.18] (Eterna round: R96, puzzle: Same State NG 2)”, the “apparent KD of MS2 coat protein” value is, setting by setting: (input ligand: FMN 200 uM) 54.8 nM; under setting [4], 1.88 nM; (input ligand: none) 14 nM.

With “AGAUGUUAAUUAGGAUAUGGACACAUGAGGAUCACCCAUGUAACGUAGAUACGAUGUGGUCAAGUCUAGAAGGGAUAGCUAACA [SameState NG2 #76] (Eterna round: R96, puzzle: Same State NG 2)”, the “apparent KD of MS2 coat protein” value runs as follows: (input ligand: FMN 200 uM) 39.9 nM; under setting [4], 35.2 nM; (input ligand: none) 40.3 nM.

As to “GGCCUCUGUCAAGGAUAUGCUACCGUUUCGGUAGCAGAAGGUGAUCACAUGCGGUUCGCCCAUGUUUAGGCCAACAGGCCCGCC (Eterna round: R96, puzzle: Same State NG 1)”, the “apparent KD of MS2 coat protein” value (input ligand: FMN 200 uM) came out at 25.1 nM, the “apparent KD of MS2 coat protein” value under setting [4] is 5.14 nM and the “apparent KD of MS2 coat protein” value (input ligand: none) worked out at 6.87 nM.

In the case of “AAAAGCGACGUAGGAUAUCCUCUACAUGCGUAAGGAGAAGGAUGCGCAACAUGAGGAUCACCCAUGUAAAACCAGCACUACUGG [Zalaendi] (Eterna round: R96, puzzle: Same State NG 1)”, the “apparent KD of MS2 coat protein” value runs as follows: (input ligand: FMN 200 uM) 53.1 nM; under setting [4], 32.6 nM; (input ligand: none) 44.9 nM.

On to “GGUCCAGCCUGAGCUGGACCACAGCAUGUACAUGAGGAUCACCCAUGUCAUGUACAAGCUUUUUGUUUAACUUAAAA [Sensorship 12 - Jieux - Sensor for hsa-mir-208a] (puzzle: Sensor for hsa-mir-208a)”, for which the “apparent KD of MS2 coat protein” value worked out at 211 nM under setting [1], 18.2 nM under setting [2] and 287 nM under setting [3].

For the sequence “AAAAUGGUAUGUUACAUGAGGAUCACCCAUGUACUCUCCUCUGAGGAUAUGGGAAUGUUGAAAAACCAGAAGGCAGACAUCCAA [AK SSNG3-V2-22] (Eterna round: R96, puzzle: Same State NG 3)”, the “apparent KD of MS2 coat protein” value by setting is: (input ligand: FMN 200 uM) 139 nM; under setting [4], 177 nM; (input ligand: none) 192 nM.

In the case of “CUAUGACAUGAGGAUCACCCAUGUGAUAAUUUCAUAGGAUAUACGGCGCCGUUAAGGGCCGUAGAAGGGUGAUCGA [Veonti] (puzzle: Same State 1)”, the “apparent KD of MS2 coat protein” value reads like this: under setting [1], 35.4 nM; under setting [2], 30.7 nM; under setting [3], 22.9 nM.

Turning to “GGUCCAGCCUGAGCUGGACAAAAGCAUGUACAUGAGGAUCACCCAUGUCAUGUACAAGCUUUUUGCUCGUCAUAAAG [Mat - hsa-mir-208a - 97] (puzzle: Sensor for hsa-mir-208a)”, the “apparent KD of MS2 coat protein” value came out at 228 nM under setting [1], 18.2 nM under setting [2] and 334 nM under setting [3].

In the case of “GCUCGAUGAGCGUUUUACAUGAGGAUCACCCAUGUUCGUGGGCAGGAUAUUUACGUGCGGUGUGUAGAGAAGGGCCCAUCGAGC [SameState NG3 #69] (Eterna round: R96, puzzle: Same State NG 3)”, the “apparent KD of MS2 coat protein” value (input ligand: FMN 200 uM) was determined as 87.1 nM, the “apparent KD of MS2 coat protein” value under setting [4] worked out at 247 nM and the “apparent KD of MS2 coat protein” value (input ligand: none) came out at 529 nM.

As to “GGAGCCGGCACUGAGGAUAUUCAUAUUAAAACAUGAGGAUCACCCAUGUAGGCCAGAAGGCCUUGGGAGAAGGCAGGUCGGCUCA [Mat - Same State 2 - Mod of UCT - D59] (puzzle: Same State 2)”, the “apparent KD of MS2 coat protein” value was 20.5 nM under setting [1], 235 nM under setting [2] and 338 nM under setting [3].

For “ACUUAGUACAAUUUAGAUCUACAUGAGGAUCACCCAUGUACUGAGGAUAUCAGCUCGAUUAGAGCUGAGAAGGCAGAAGUACUU [SSNG3/8-A2] (Eterna round: R96, puzzle: Same State NG 3)”, the “apparent KD of MS2 coat protein” value was 45.4 nM (input ligand: FMN 200 uM), 159 nM under setting [4] and 220 nM (input ligand: none).

Regarding “GCUCUGGCGGUAGGAUAUCUAGGAUAUGGGAAAGACUAAGUCUGUAGGUCACCUAACCCAGAAGGAGAGAAGGACCCUGUAAGG [pwkr ssNG2 2FMN + F9.23] (Eterna round: R96, puzzle: Same State NG 2)”, the “apparent KD of MS2 coat protein” value (input ligand: FMN 200 uM) was 21 nM, the “apparent KD of MS2 coat protein” value under setting [4] worked out at 17.2 nM and the “apparent KD of MS2 coat protein” value (input ligand: none) was 18.6 nM.

Regarding “CGUCGUUUGAUAGGAUAUCGCUUUACAUGAGGAUCACCCAUGUUUACCACGCUGGUUUUUCUUUCCGAGAAGGAUUCUGAUGUU [salish99_SSNG02_r04_023] (Eterna round: R96, puzzle: Same State NG 2)”, the “apparent KD of MS2 coat protein” value by setting is: (input ligand: FMN 200 uM) 35.7 nM; under setting [4], 25.2 nM; (input ligand: none) 35.9 nM.

Turning to “CGUGGGUGGCUGGAGGAUAUUCGAGUGGUAACAUGAGGAUCACCCAUGUGUCGCGCGGUACACGAGGAGAAGGCUGGCGGCCGGC (puzzle: Same State 2)”, the “apparent KD of MS2 coat protein” value under setting [1] worked out at 34.6 nM, the “apparent KD of MS2 coat protein” value under setting [2] was determined as 109 nM and the “apparent KD of MS2 coat protein” value under setting [3] came to 256 nM.

For “AUAAGUUCGAUGCUCGUCUCUCCGUACAAACAUGAGGAUCACCCAUGUGGCCGGGAAGUAGCCCGACCAGUAUGGCC [Tearbeorve] (puzzle: Sensor for hsa-mir-208a)”, the “apparent KD of MS2 coat protein” value reads like this: under setting [1], 38.6 nM; under setting [2], 27.1 nM; under setting [3], 45.2 nM.

Take “AUUAUUAAUGCAGGAUAUGAUUAACAUGAGGAUCACCCAUGUGGUGUUGUGAGUAAGGAGAGUGAUCAGAAGGGCAUUUUUUCU [JMF's solution 17] (Eterna round: R96, puzzle: Same State NG 2)”: the “apparent KD of MS2 coat protein” value reads like this: (input ligand: FMN 200 uM) 558 nM; under setting [4], 442 nM; (input ligand: none) 585 nM.

For “GGUCCGGCCUGAGCUGGACCGGAGCAUGUACAUGAGGAUCACCCAUGUCAUGUACAGGCUUCUUGCUCGUCUUGUUG [JL-shm-2.16 JL Mod] (Eterna round: R96, puzzle: Sensor for hsa-mir-208a)”, the “apparent KD of MS2 coat protein” value by setting is: (input ligand: FMN 200 uM) 282 nM; under setting [4], 14.8 nM; (input ligand: none) 130 nM.

On to “AAACACAGCAUAACGCCGUGACAUGAGGAUCACCCAUGUACACAGGAUAUCAUGGCAUAACGCCAUGAGAAGGGUGAUCAAGAC [Raorma] (Eterna round: R96, puzzle: Same State NG 3)”, for which the “apparent KD of MS2 coat protein” value (input ligand: FMN 200 uM) worked out at 732 nM, the “apparent KD of MS2 coat protein” value under setting [4] was 77 nM and the “apparent KD of MS2 coat protein” value (input ligand: none) was 78.8 nM.

In the case of “AGUCCAGCCUGAGCUGGACAAAAGCAUGUACAUGAGGAUCACCCAUGUCAUGUACAAGCUUUUUGCUCGUCAUAAUA [Mat - hsa-mir-208a - Mod of JL - D28] (puzzle: Sensor for hsa-mir-208a)”, the “apparent KD of MS2 coat protein” value under setting [1] turned out to be 653 nM, the “apparent KD of MS2 coat protein” value under setting [2] turned out to be 14.9 nM and the “apparent KD of MS2 coat protein” value under setting [3] stood at 710 nM.
